How the values were obtained:
[1] = target: Human GHSR (growth hormone secretagogue receptor, ghrelin receptor), purified and inserted into lipid nanodiscs (human) (UniProt Q92847); assay: FRET or BRET; competition: time-resolved energy transfer between purified GHSR labeled with Lumi4-Tb at its N-terminus and dy647-labeled ghrelin (0.1 µM range), increasing competitor; GHSR in 12 nm nanodiscs (MSP1E3D1(-) scaffold); isolated receptor without G protein
[2] = target: Human GHSR (growth hormone secretagogue receptor, ghrelin receptor), purified and inserted into lipid nanodiscs (human) (UniProt Q92847); assay: FRET or BRET; competition: time-resolved energy transfer between purified GHSR labeled with Lumi4-Tb at its N-terminus and dy647-labeled ghrelin (0.1 µM range), increasing competitor; GHSR in 17 nm nanodiscs (cNW30 scaffold); isolated receptor without G protein

UniProt Q92847, sequence (Q92847 whole entry): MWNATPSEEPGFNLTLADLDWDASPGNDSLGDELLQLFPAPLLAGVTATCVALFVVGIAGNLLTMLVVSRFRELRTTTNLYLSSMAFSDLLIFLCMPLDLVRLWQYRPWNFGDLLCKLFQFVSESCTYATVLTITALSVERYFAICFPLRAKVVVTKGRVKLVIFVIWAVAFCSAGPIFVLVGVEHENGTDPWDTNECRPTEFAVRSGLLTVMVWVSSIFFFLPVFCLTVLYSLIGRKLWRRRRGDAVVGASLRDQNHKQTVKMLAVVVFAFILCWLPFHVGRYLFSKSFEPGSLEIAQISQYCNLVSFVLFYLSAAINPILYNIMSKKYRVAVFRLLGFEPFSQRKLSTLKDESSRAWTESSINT

Work on “LEAP2(1-14), the active N-terminal region of the natural inverse agonist LEAP2 (peptide)” yielded a Ki [1] of 6.7 nM and a Ki [2] of 4.6 nM.
